Patent US11292821B2, “Peptides and combination of peptides for use in immunotherapy against lung cancer, including NSCLC, SCLC and other cancers” (Immatics Biotechnologies GmbH, priority 2017, dated 2022)
Blank lines part the entries; values can stand above or below the substance they belong to.

Experiments:
[1] = system: CD8+ T cells; experiment: In vitro T-cell priming assay with aAPCs (in vitro immunogenicity for MHC class I presented peptides); type: cell-based, human; conditions: in vitro immunogenicity
[2] = target: HLA-A*02 (Homo sapiens, UniProt P04439, D140Y/D185E/D98H/E176V/E277Q/G131W/G231S/I119V/I121R/I166T/I218V/N151K/N90K/P208A/P217A/Q86G/Q94H/R138H/R169H); experiment: MHC binding assay (UV-ligand exchange, β2m ELISA)
[3] = target: HLA-A*03 (Homo sapiens, UniProt P04439); experiment: MHC binding assay (UV-ligand exchange, β2m ELISA)

Substance: 84 (YVDINTFRL; listed as Homo sapiens) [compound 84]
Wells positive [%] ([1]; HLA A*02): “+” (<20% = +)
Peptide exchange (peptide exchange yield, MHC class I binding score) [2]: “++++” (>75% = ++++)

Substance: 85 (YIDEFQSLV; listed as Homo sapiens) [compound 85]
Wells positive [%] ([1]; HLA A*02): “++” (20%-49% = ++)
Peptide exchange (peptide exchange yield, MHC class I binding score) [2]: “++++” (>75% = ++++)

Substance: 87 (TLYPYQISQL; listed as Homo sapiens) [compound 87]
Wells positive [%] ([1]; HLA A*02): “++” (20%-49% = ++)
Peptide exchange (peptide exchange yield, MHC class I binding score) [2]: “++++” (>75% = ++++)

Substance: 88 (VQMVITEAQKV; listed as Homo sapiens) [compound 88]
Wells positive [%] ([1]; HLA A*02): “++” (20%-49% = ++)
Peptide exchange (peptide exchange yield, MHC class I binding score) [2]: “++++” (>75% = ++++)

Substance: 89 (ILSTTMVTV; listed as Homo sapiens) [compound 89]
Wells positive [%] ([1]; HLA A*02): “+++” (50%-69% = +++)
Peptide exchange (peptide exchange yield, MHC class I binding score) [2]: “++++” (>75% = ++++)

Substance: 93 (TLQEKILQV; listed as Homo sapiens) [compound 93]
Wells positive [%] ([1]; HLA A*02): “+” (<20% = +)
Peptide exchange (peptide exchange yield, MHC class I binding score) [2]: “++++” (>75% = ++++)

Substance: 94 (VLPDIETLIGV; listed as Homo sapiens) [compound 94]
Wells positive [%] ([1]; HLA A*02): “+++” (50%-69% = +++)
Peptide exchange (peptide exchange yield, MHC class I binding score) [2]: “++++” (>75% = ++++)

Substance: 95 (ITIGVLARV; listed as Homo sapiens) [compound 95]
Wells positive [%] ([1]; HLA A*02): “++++” (>=70% = ++++)
Peptide exchange (peptide exchange yield, MHC class I binding score) [2]: “++++” (>75% = ++++)

Substance: 96 (HLVGGLHTV; listed as Homo sapiens) [compound 96]
Wells positive [%] ([1]; HLA A*02): “+++” (50%-69% = +++)
Peptide exchange (peptide exchange yield, MHC class I binding score) [2]: “++++” (>75% = ++++)

Substance: 97 (VLALVNSTV; listed as Homo sapiens) [compound 97]
Wells positive [%] ([1]; HLA A*02): “+++” (50%-69% = +++)
Peptide exchange (peptide exchange yield, MHC class I binding score) [2]: “++++” (>75% = ++++)

Substance: 101 (FIISDWRFVL; listed as Homo sapiens) [compound 101]
Wells positive [%] ([1]; HLA A*02): “+” (<20% = +)
Peptide exchange (peptide exchange yield, MHC class I binding score) [2]: “+++” (>50 = +++)

Substance: 111 (ALCLLLHLL; listed as Homo sapiens) [compound 111]
Peptide exchange (peptide exchange yield, MHC class I binding score) [2]: “+” (>10% = +)

Substance: 112 (SVSDGIHSV; listed as Homo sapiens) [compound 112]
Peptide exchange (peptide exchange yield, MHC class I binding score) [2]: “++++” (>75% = ++++)

Substance: 113 (AVLTGLVEV; listed as Homo sapiens) [compound 113]
Peptide exchange (peptide exchange yield, MHC class I binding score) [2]: “++++” (>75% = ++++)

Substance: 114 (ILDERQVLL; listed as Homo sapiens) [compound 114]
Peptide exchange (peptide exchange yield, MHC class I binding score) [2]: “++++” (>75% = ++++)

Substance: 115 (MLLETQDALYV; listed as Homo sapiens) [compound 115]
Peptide exchange (peptide exchange yield, MHC class I binding score) [2]: “++++” (>75% = ++++)

Substance: 116 (VLMEENSKL; listed as Homo sapiens) [compound 116]
Peptide exchange (peptide exchange yield, MHC class I binding score) [2]: “++++” (>75% = ++++)

Substance: 117 (FLDPNARPLV; listed as Homo sapiens) [compound 117]
Peptide exchange (peptide exchange yield, MHC class I binding score) [2]: “++++” (>75% = ++++)

Substance: 118 (ALSSVLHSI; listed as Homo sapiens) [compound 118]
Peptide exchange (peptide exchange yield, MHC class I binding score) [2]: “++++” (>75% = ++++)

Substance: 119 (RTADITVTV; listed as Homo sapiens) [compound 119]
Peptide exchange (peptide exchange yield, MHC class I binding score) [2]: “++++” (>75% = ++++)

Substance: 120 (ALLANLPAV; listed as Homo sapiens) [compound 120]
Peptide exchange (peptide exchange yield, MHC class I binding score) [2]: “++++” (>75% = ++++)

Substance: 121 (ALVDTLTGI; listed as Homo sapiens) [compound 121]
Peptide exchange (peptide exchange yield, MHC class I binding score) [2]: “++++” (>75% = ++++)

Substance: 122 (ALLEMFPEITV; listed as Homo sapiens) [compound 122]
Peptide exchange (peptide exchange yield, MHC class I binding score) [2]: “++++” (>75% = ++++)

Substance: 123 (LMAFFLAVV; listed as Homo sapiens) [compound 123]
Peptide exchange (peptide exchange yield, MHC class I binding score) [2]: “++” (>20% = ++)

Substance: 124 (SVASVLLYL; listed as Homo sapiens) [compound 124]
Peptide exchange (peptide exchange yield, MHC class I binding score) [2]: “++++” (>75% = ++++)

Substance: 125 (VLQPFLPSI; listed as Homo sapiens) [compound 125]
Wells positive [%] ([1]; HLA A*02): “++++” (>=70% = ++++)
Peptide exchange (peptide exchange yield, MHC class I binding score) [2]: “++++” (>75% = ++++)

Substance: 126 (FLSTVTSV; listed as Homo sapiens) [compound 126]
Peptide exchange (peptide exchange yield, MHC class I binding score) [2]: “++++” (>75% = ++++)

Substance: 127 (GLDGSLVFL; listed as Homo sapiens) [compound 127]
Wells positive [%] ([1]; HLA A*02): “++” (20%-49% = ++)
Peptide exchange (peptide exchange yield, MHC class I binding score) [2]: “++++” (>75% = ++++)

Substance: 128 (FLGTTPTL; listed as Homo sapiens) [compound 128]
Wells positive [%] ([1]; HLA A*02): “+” (<20% = +)
Peptide exchange (peptide exchange yield, MHC class I binding score) [2]: “++++” (>75% = ++++)

Substance: 129 (VLYDKDAVYV; listed as Homo sapiens) [compound 129]
Wells positive [%] ([1]; HLA A*02): “++” (20%-49% = ++)
Peptide exchange (peptide exchange yield, MHC class I binding score) [2]: “++++” (>75% = ++++)

Substance: 130 (NLWGGQGLLGV; listed as Homo sapiens) [compound 130]
Wells positive [%] ([1]; HLA A*02): “+” (<20% = +)
Peptide exchange (peptide exchange yield, MHC class I binding score) [2]: “++++” (>75% = ++++)

Substance: 131 (LLKEFVQRV; listed as Homo sapiens) [compound 131]
Wells positive [%] ([1]; HLA A*02): “++++” (>=70% = ++++)
Peptide exchange (peptide exchange yield, MHC class I binding score) [2]: “++++” (>75% = ++++)

Substance: 132 (ALWLVDPLTV; listed as Homo sapiens) [compound 132]
Wells positive [%] ([1]; HLA A*02): “+++” (50%-69% = +++)
Peptide exchange (peptide exchange yield, MHC class I binding score) [2]: “++++” (>75% = ++++)

Substance: 133 (MTLPVDAVISV; listed as Homo sapiens) [compound 133]
Wells positive [%] ([1]; HLA A*02): “+” (<20% = +)
Peptide exchange (peptide exchange yield, MHC class I binding score) [2]: “++++” (>75% = ++++)

Substance: 202 (KLAELEGALQK; listed as Homo sapiens) [compound 202]
Peptide exchange (peptide exchange yield, MHC class I binding score) [3]: “++++” (>75% = ++++)

Substance: 203 (KVKDTPGLGK; listed as Homo sapiens) [compound 203]
Peptide exchange (peptide exchange yield, MHC class I binding score) [3]: “++++” (>75% = ++++)

Substance: 204 (AVFDKFIRY; listed as Homo sapiens) [compound 204]
Peptide exchange (peptide exchange yield, MHC class I binding score) [3]: “++++” (>75% = ++++)

Substance: 205 (SLDGAARPK; listed as Homo sapiens) [compound 205]
Wells positive [%] ([1]; HLA A*03): “++” (20%-49% = ++)
Peptide exchange (peptide exchange yield, MHC class I binding score) [3]: “++++” (>75% = ++++)

Substance: 206 (KLIDLSQVMY; listed as Homo sapiens) [compound 206]
Peptide exchange (peptide exchange yield, MHC class I binding score) [3]: “++++” (>75% = ++++)

Substance: 207 (RSFNGLLTMY; listed as Homo sapiens) [compound 207]
Peptide exchange (peptide exchange yield, MHC class I binding score) [3]: “++++” (>75% = ++++)

Continued, in another order:

Peptide exchange (peptide exchange yield, MHC class I binding score) [3]: “++++” (>75% = ++++)
Substance: 208 (GLASRILDAK; listed as Homo sapiens) [compound 208]
Wells positive [%] ([1]; HLA A*03): “+” (<20% = +)

Peptide exchange (peptide exchange yield, MHC class I binding score) [3]: “++++” (>75% = ++++)
Substance: 211 (TVNPVAIHK; listed as Homo sapiens) [compound 211]

Peptide exchange (peptide exchange yield, MHC class I binding score) [3]: “++++” (>75% = ++++)
Substance: 212 (KAYEQVMHY; listed as Homo sapiens) [compound 212]

Peptide exchange (peptide exchange yield, MHC class I binding score) [3]: “++++” (>75% = ++++)
Substance: 215 (MMFSGPQILKL; listed as Homo sapiens) [compound 215]

Peptide exchange (peptide exchange yield, MHC class I binding score) [3]: “+++” (>50 = +++)
Substance: 216 (KLYAWELAF; listed as Homo sapiens) [compound 216]

Peptide exchange (peptide exchange yield, MHC class I binding score) [3]: “++++” (>75% = ++++)
Substance: 217 (RILNQILYY; listed as Homo sapiens) [compound 217]

Peptide exchange (peptide exchange yield, MHC class I binding score) [3]: “++++” (>75% = ++++)
Substance: 219 (RLRSSLVFK; listed as Homo sapiens) [compound 219]

Peptide exchange (peptide exchange yield, MHC class I binding score) [2]: “++++” (>75% = ++++)
Substance: 388 (FSIPEGALVAV; listed as Homo sapiens) [compound 388]

Peptide exchange (peptide exchange yield, MHC class I binding score) [2]: “++++” (>75% = ++++)
Substance: 389 (TLMEQPLTTL; listed as Homo sapiens) [compound 389]

Peptide exchange (peptide exchange yield, MHC class I binding score) [2]: “++++” (>75% = ++++)
Substance: 390 (HIMPTVHTV; listed as Homo sapiens) [compound 390]

Peptide exchange (peptide exchange yield, MHC class I binding score) [2]: “++++” (>75% = ++++)
Substance: 391 (SLIDMRGIETV; listed as Homo sapiens) [compound 391]

Peptide exchange (peptide exchange yield, MHC class I binding score) [2]: “++++” (>75% = ++++)
Substance: 392 (SLFKDQMEL; listed as Homo sapiens) [compound 392]
Wells positive [%] ([1]; HLA A*02): “+” (<20% = +)

Peptide exchange (peptide exchange yield, MHC class I binding score) [2]: “++++” (>75% = ++++)
Substance: 393 (ILLPYLQTL; listed as Homo sapiens) [compound 393]
Wells positive [%] ([1]; HLA A*02): “+” (<20% = +)

Peptide exchange (peptide exchange yield, MHC class I binding score) [3]: “++++” (>75% = ++++)
Substance: 453 (AINTSIKNK; listed as Homo sapiens) [compound 453]

Peptide exchange (peptide exchange yield, MHC class I binding score) [3]: “++++” (>75% = ++++)
Substance: 454 (KVYTPSISK; listed as Homo sapiens) [compound 454]

Peptide exchange (peptide exchange yield, MHC class I binding score) [3]: “++++” (>75% = ++++)
Substance: 455 (RIADIFVKK; listed as Homo sapiens) [compound 455]

Peptide exchange (peptide exchange yield, MHC class I binding score) [3]: “++++” (>75% = ++++)
Substance: 456 (SMFTAILKK; listed as Homo sapiens) [compound 456]

Peptide exchange (peptide exchange yield, MHC class I binding score) [3]: “++++” (>75% = ++++)
Substance: 457 (SINKPTSER; listed as Homo sapiens) [compound 457]

Peptide exchange (peptide exchange yield, MHC class I binding score) [3]: “++++” (>75% = ++++)
Substance: 458 (GIADFVLKY; listed as Homo sapiens) [compound 458]
